Our source for the binding result and Kd values is article PMC5291263.

The target in data set [1] is T1, GB1-SRSF1 RRM2 WT (pseudo-RRM) (human, UniProt Q07955 107-203). As to the kind of experiment: NMR.
Data set [2] addresses T1, GB1-SRSF1 RRM2 WT (pseudo-RRM). As to the kind of experiment: ITC. In general terms: ITC needs no label: the signal is the heat of the interaction.
The next data set has as its target GB1-SRSF1 RRM2 R142A (human, UniProt Q07955 107-203, R142A). Briefly: ITC.

T1 sequence (Q07955 107-203): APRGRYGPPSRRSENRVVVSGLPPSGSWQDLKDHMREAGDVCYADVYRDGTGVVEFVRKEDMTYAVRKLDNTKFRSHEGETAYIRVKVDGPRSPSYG
GB1-SRSF1 RRM2 R142A, sequence (Q07955 107-203 R142A): as the sequence (Q07955 107-203) above, with R36A counted along it

With UGAAGGAC (ssRNA) [5'-UGAAGGAC-3' RNA], the binding result in data set [1] is reported as “binds”. In the case of AGGAC (ssRNA) [5'-AGGAC-3' RNA], the equilibrium dissociation constant (Kd) amounted to 1 µM in data set [2] and 7 µM with GB1-SRSF1 RRM2 R142A.

In general, Kd refers to the free concentration of one partner at which half of the binding sites on the other are occupied at equilibrium, for simple one-to-one binding. Read a low Kd as tighter binding.
